One test has as its target T1, GFP-Rab31 (mouse, UniProt Q921E2 1-195).
T1 sequence (looked up): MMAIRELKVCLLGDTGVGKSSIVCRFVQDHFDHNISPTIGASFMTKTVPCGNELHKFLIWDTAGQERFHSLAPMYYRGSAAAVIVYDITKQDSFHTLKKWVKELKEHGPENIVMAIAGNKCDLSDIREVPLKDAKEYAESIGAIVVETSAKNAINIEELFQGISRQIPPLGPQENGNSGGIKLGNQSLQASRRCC
The test is described as follows: co-IP.

The target of test [1] is T2, purified APPL2 after cleavage of GST (mouse, UniProt Q8K3G9 1-662).
T2 sequence (looked up): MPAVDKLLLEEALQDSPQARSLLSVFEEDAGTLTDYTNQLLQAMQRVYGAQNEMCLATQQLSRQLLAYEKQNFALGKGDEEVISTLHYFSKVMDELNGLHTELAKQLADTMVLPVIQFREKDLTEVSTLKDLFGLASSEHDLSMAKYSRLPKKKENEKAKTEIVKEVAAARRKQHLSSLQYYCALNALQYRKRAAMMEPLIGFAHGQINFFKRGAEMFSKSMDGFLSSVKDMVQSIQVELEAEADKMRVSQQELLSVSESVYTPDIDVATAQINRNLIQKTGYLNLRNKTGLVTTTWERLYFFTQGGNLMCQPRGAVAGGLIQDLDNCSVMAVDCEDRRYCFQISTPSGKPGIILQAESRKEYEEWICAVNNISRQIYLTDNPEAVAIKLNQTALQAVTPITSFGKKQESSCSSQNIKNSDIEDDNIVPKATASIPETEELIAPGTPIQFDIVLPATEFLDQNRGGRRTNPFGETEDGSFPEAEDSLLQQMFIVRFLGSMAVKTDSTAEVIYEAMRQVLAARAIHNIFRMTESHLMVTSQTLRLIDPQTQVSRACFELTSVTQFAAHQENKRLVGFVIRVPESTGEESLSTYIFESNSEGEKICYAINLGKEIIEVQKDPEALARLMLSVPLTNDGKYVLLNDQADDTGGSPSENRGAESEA
As to the kind of experiment: pull-down.

B1: APPL2 (adaptor protein, phosphotyrosine interaction, PH domain, and leucine zipper–containing 2) (natural protein, mouse (endogenous in RAW 264.7), UniProt Q8K3G9 1-662, looked up)
chain: T2 sequence (looked up)
B1: the “fold preference over GFP-Rab5a” value in the test with GFP-Rab31 amounted to 3 fold.

B2: GST-Rab31 (natural protein, mouse, UniProt Q921E2 1-195, looked up)
chain: T1 sequence (looked up)
Consider B2, for which the binding result in test [1] was “binds”.

Source of the values: paper PMC4342030 (Molecular Biology of the Cell, 2015).
